According to patent publication US20080044815A1 (published 2008):

What was measured:
Assay in all cases: forward yeast two-hybrid, β-galactosidase overlay assay
[1] = biological target: T1, JNK1 point mutant Tyr-320-His, fused to the B42 activation domain (pJG4-5) (human, UniProt Q91Y86 1-384 (mouse entry))
T1 construct: Full-length JNK1 single point mutant; two-hybrid prey; also called Y320H; Y320→H320

[2] = biological target: T2, JNK1 point mutant Arg-309-Trp, fused to the B42 activation domain (pJG4-5) (human, UniProt Q91Y86 1-384 (mouse entry))
T2 construct: Full-length JNK1 single point mutant; two-hybrid prey; also called R309W; R309→W309

[3] = biological target: T3, JNK1 point mutant Leu-131-Arg, fused to the B42 activation domain (pJG4-5) (human, UniProt Q91Y86 1-384 (mouse entry))
T3 construct: Full-length JNK1 single point mutant; two-hybrid prey; also called L131R; L131→R131

Measured: binding result

B1: TI-JIP (Truncated Inhibitor of JNK based on JIP) fused to the LexA DNA-binding domain, from pGILDA-TI-JIP (peptide)
chain: MKALTARQQEVFDLIRDHISQTGMPPTRAEIAQRLGFRSPNAAEEHLKALARKGVIEIVSGASRGIRLLQEEEEGLPLVGRVAAGEPLLAQQHIEGHYQVDPSLFKPNADFLLRVSGMSMKDIGIMDGDLLAVHKTQDVRNGQVVVARIDDEVTVKRLKKQGNKVELLPENSEFKPIVVDLRQQSFTIEGLAVGVIRNGDWLRPKRPTTLNLF
notes: 11-residue peptide expressed in yeast as a C-terminal fusion with LexA (two-hybrid bait); also called bait
no binding: all assays above
